Measurements reported in US20180326053A1 (OKLAHOMA MEDICAL RESEARCH FOUNDATION, published 2018).

T1: human activated Protein C (human, Light chain (chain 1): the Gla domain holds gamma-carboxyglutamates, from memory at pos 6, 7, 14, 16, 19, 20, 25, 26 and 29, written E. Pos 71 is beta-hydroxy-Asp, written D. N-glycans are present. …)
T1 construct: also called aPC; APC
T1 light: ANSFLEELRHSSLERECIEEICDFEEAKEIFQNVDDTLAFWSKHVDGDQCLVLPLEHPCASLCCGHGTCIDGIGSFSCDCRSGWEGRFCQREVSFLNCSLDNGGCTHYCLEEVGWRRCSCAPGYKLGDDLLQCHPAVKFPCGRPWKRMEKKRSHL
T1 heavy: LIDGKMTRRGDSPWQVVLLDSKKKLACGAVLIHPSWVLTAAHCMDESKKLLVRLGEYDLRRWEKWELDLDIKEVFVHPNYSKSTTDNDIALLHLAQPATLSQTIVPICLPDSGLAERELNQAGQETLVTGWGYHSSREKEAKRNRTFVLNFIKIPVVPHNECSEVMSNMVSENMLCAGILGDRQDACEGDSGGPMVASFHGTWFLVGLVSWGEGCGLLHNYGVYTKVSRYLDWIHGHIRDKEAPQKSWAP


Experiments:
[1] = target: T2, human Protein C (unactivated, zymogen) (human, UniProt P04070 43-461); assay: ELISA, plate coated with human PC, IgG titrated (PC-ELISA)
T2 construct: mature; also called PC; hPC
Description: (§1) Plates (Nunc, cat#442404) were coated with 100 μl of human aPC (1 μg/ml) or hPC (2 μg/ml) diluted in DPBS (Gibco, cat#14040) overnight (o/n) at 4° C. After washing, the ELISA plate was blocked with 200 μl MPBST for 1 hr at RT, and tapped dry on a stack of paper towels. To each well 100 μl of IgG to be tested was added, and incubated for 1 hr at RT (for EC₅₀ determinations 1:3 dilutions were performed starting at 20 nM). Plates were washed 5× with PBST. 100 μl of anti-hIgG Fc-HRP (Sigma, cat#A0170) diluted 1:10,000 in PBST was added to each well. Plates were washed and 100 μl/well of TMB substrate was added and incubated at room temperature for 5 min. 100 μl/well of 1 N HCl was added to terminate the reaction. The plate was read with an ELISA plate reader (Biotek, Elx405) at 450 nm wavelength.

[2] = target: T1, human activated Protein C; assay: aPC-ELISA, human aPC coated, IgG titrated
Description: as §1

[3] = target: T2, human Protein C (unactivated, zymogen); assay: PC-ELISA, hPC coated
Description: as §1

[4] = target: T1, human activated Protein C; assay: SPR, human aPC
[5] = target: T1, human activated Protein C; assay: Biacore (SPR)

binding result [1] | EC50 [2] [pM] | binding result [3] | Kd [4] [pM] | Kd [5] [pM] | Binder
no binding (tested: 10 µM (log M -5)) | 670 |  |  |  | TPP-3656 (HU1573-V3-hIgG2Kappa) (antibody, V domains shown, also called TPP-3656 VK7-3) VH: EVQLVESGGGLVQPGGSLRLSCAASGFTFSNYYLNWVRQAPGKGLEWVGDIRLKSNNYEKHYAESVKGRFTISRDDSKNSLYLQMNSLKTEDTAVYYCAREGDYFDYWGQGTLVTVSS VL: DIVLTQSPASLAVSPGQRATITCKASESVDSFGATFMHWYQQKPGQPPKLLIYLASNLESGVPARFSGSGSGTDFTLTINPVEANDTANYYCQQNNEDPYTFGQGTKLEIKR
 | 500 | no binding (tested: up to 10 µM) | 13600 |  | TPP-3356 (H1573VK2-VH1Cgl1-hIgG2Kappa) (antibody, V domains shown, also called TPP-3356 VK2D-29) VH: EVQLVESGGGLVQPGGSLRLSCAASGFTFSNYYLNWVRQAPGKGLEWVADIRLKSNNYEKHYAESVKGRFTISRDDSKNSLYLQMNSLKTEDTAVYYCIREGDYFDYWGQGTTVTVSS VL: DIVMTQTPLSLSVTPGQPASISCKASESVDSFGATFMHWYLQKPGQPPQLLIYLASNLESGVPDRFSGSGSGTDFTLKISRVEAEDVGVYYCQQNNEDPYTFGQGTKLEIKR
no binding (tested: 10 µM (log M -5)) | 430 |  |  |  | TPP-3657 (HU1573-V2-hIgG2Kappa) (antibody, V domains shown, also called TPP-3657 VK7-3) VH: EVQLVESGGGLVQPGGSLRLSCAASGFTFSNYYLNWVRQAPGKGLEWVADIKSNNYEKHYAESVKGRFTISRDNAKNSLYLQMNSLRAEDTAVYYCAREGDYFDYWGQGTLVTVSS VL: DIVLTQSPASLAVSPGQRATITCKASESVDSFGATFMHWYQQKPGQPPKLLIYLASNLESGVPARFSGSGSGTDFTLTINPVEANDTANYYCQQNNEDPYTFGQGTKLEIKR
 |  |  | 23400 |  | TPP-3357 (H1573Vk2A-VH1Cgl2-hIgG2Kappa) (antibody, V domains shown) VH: EVQLVESGGGLVQPGGSLRLSCAASGFTFSSYYMNWVRQAPGKGLEWVSDIRLKSNNYEKHYADSVKGRFTISRDNAKNSLYLQMNSLRAEDTAVYYCAREGDYFDYWGQGTLVTVSS VL: DIVLTQTPLSLSVTPGQPASISCRASESVDSFGATFMHWYLQKPGQPPQLLIYLASNLESGVPDRFSGSGSGTDFTLKISRVEAEDVGVYYCQQNNEDPYTFGQGTKLEIKR
 |  |  |  | 14000 | TPP-4885 (BAY1896502) (antibody, human IgG2, kappa, V domains shown, TPP-3656 with the N85D mutation in the light chain; IgG2/kappa like TPP-3656; also called type II ab BAY1896502) VH: EVQLVESGGGLVQPGGSLRLSCAASGFTFSNYYLNWVRQAPGKGLEWVGDIRLKSNNYEKHYAESVKGRFTISRDDSKNSLYLQMNSLKTEDTAVYYCAREGDYFDYWGQGTLVTVSS VL: DIVLTQSPASLAVSPGQRATITCKASESVDSFGATFMHWYQQKPGQPPKLLIYLASNLESGVPARFSGSGSGTDFTLTINPVEADDTANYYCQQNNEDPYTFGQGTKLEIKR
 | 420 | no binding |  |  | TPP-3639 (HU1573-V4-hIgG2Kappa) (antibody, V domains shown, also called TPP-3639 VK7-3) VH: EVQLVESGGGLVQPGGSLRLSCAASGFTFSSYYMNWVRQAPGKGLEWVADIRLKSNNYEKHYADSVKGRFTISRDNAKNSLYLQMNSLRAEDTAVYYCAREGDYFDYWGQGTLVTVSS VL: DIVLTQSPASLAVSPGQRATITCRASESVDSFGATFMHWYQQKPGQPPKLLIYLASNLESGVPARFSGSGSGTDFTLTINPVEANDTANYYCQQNNEDPYTFGQGTKLEIKR
no binding (tested: 10 µM (log M -5)) | 650 |  |  |  | TPP-3658 (HU1573-V1-hIgG2Kappa) (antibody, V domains shown, also called TPP-3658 VK7-3) VH: EVQLVESGGGLVQPGGSLRLSCAASGFTFSNYYLNWVRQAPGKGLEWVADIRLKSNNYEKHYAESVKGRFTISRDDSKNSLYLQMNSLKTEDTAVYYCIREGDYFDYWGQGTTVTVSS VL: DIVLTQSPASLAVSPGQRATITCKASESVDSFGATFMHWYQQKPGQPPKLLIYLASNLESGVPARFSGSGSGTDFTLTINPVEANDTANYYCQQNNEDPYTFGQGTKLEIKR
